Test results published in the supplement of paper PMC10567573.
± gives the standard deviation.

Assay: protein stability index of a GFP-peptide fusion (GPS, HEK-293T) (PSI 1-6); higher = more stable
Conditions: c terminus: a fixed tail appended
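Further: 24-mer peptide tiles fused after GFP, lentivirally expressed, FACS-sorted into six equal bins by GFP/DsRed ratio, decoded by Illumina sequencing, PSI is the read-weighted mean bin number.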

SYAHSVEDTHVQIGQVHEEFKQNI [FCHO1]
protein stability index (treatment: DMSO): 4.55 ± 0.25
protein stability index (treatment: MLN4924 1 uM, 8 h): 4.7 ± 0.081

WEHRTRVGRLYAVYDQAVSIFYDL [SMAD6]
protein stability index (treatment: DMSO): 2.52 ± 0.66
protein stability index (treatment: MLN4924 1 uM, 8 h): 2.59 ± 0.47

PKRRMRYFDPLRNEYFFDRNRPSF [KCNA3]
protein stability index (treatment: DMSO): 2.37 ± 0.26
protein stability index (treatment: MLN4924 1 uM, 8 h): 2.6 ± 0.65

HHLFPTMPRHNYHKVAPLVQSLCA [FADS1]
protein stability index (treatment: DMSO): 2.4 ± 0.32
protein stability index (treatment: MLN4924 1 uM, 8 h): 2.51 ± 0.17

DRPMFMLQCAMEENCLSASAAQTD [LOXL2]
protein stability index (treatment: DMSO): 2.38 ± 0.52
protein stability index (treatment: MLN4924 1 uM, 8 h): 1.94 ± 0.19

KRPARLHTKPSQAPAVEVAPAGAS [NOP53]
protein stability index (treatment: DMSO): 4.77 ± 0.42
protein stability index (treatment: MLN4924 1 uM, 8 h): 4.96 ± 0.19

IKAEPASPDSPKGSSETETEPPVA [ESRRA]
protein stability index (treatment: DMSO): 5.58 ± 0.17
protein stability index (treatment: MLN4924 1 uM, 8 h): 5.62 ± 0.11

LRCRKEFYQLVWSALPFITYLENK [POP5]
protein stability index (treatment: DMSO): 2.41 ± 0.9
protein stability index (treatment: MLN4924 1 uM, 8 h): 2.07 ± 0.17

VILKNSQGEEVAQRSTVFKTTIPE [LMNB1]
protein stability index (treatment: DMSO): 2.67 ± 0.34
protein stability index (treatment: MLN4924 1 uM, 8 h): 2.84 ± 0.24

GAAEPITVKFANNPSQKTGQALLT [ELAVL3]
protein stability index (treatment: DMSO): 4.1 ± 0.3
protein stability index (treatment: MLN4924 1 uM, 8 h): 4.39 ± 0.055

SLGIELHCNVSNILHMNGSQSSTY [ZNF396]
protein stability index (treatment: DMSO): 2.18 ± 0.38
protein stability index (treatment: MLN4924 1 uM, 8 h): 2.16 ± 0.27

WEMIRKIGDTSVSYKYTSRYVLKA [LMNB1]
protein stability index (treatment: DMSO): 1.98 ± 0.58
protein stability index (treatment: MLN4924 1 uM, 8 h): 2.56 ± 0.49

HKRRRRKQKVSRIERSSSFSSITD [DVL3]
protein stability index (treatment: DMSO): 4.28 ± 0.096
protein stability index (treatment: MLN4924 1 uM, 8 h): 4.55 ± 0.092

CSLYENDCIFDKFECAWNGSDSVI [PPP2R2C]
protein stability index (treatment: DMSO): 2.21 ± 0.17
protein stability index (treatment: MLN4924 1 uM, 8 h): 2.17 ± 0.15

SRTTCLFLHLRTHTEERPYECNHC [ZNF8]
protein stability index (treatment: DMSO): 2.62 ± 0.45
protein stability index (treatment: MLN4924 1 uM, 8 h): 2.8 ± 0.43

LYFLFADAMQLNDKWQGLCWPMMD [CMTM3]
protein stability index (treatment: DMSO): 3.07 ± 0.31
protein stability index (treatment: MLN4924 1 uM, 8 h): 3.05 ± 0.47

HEEFFPAFQAFTNDLLEILEIDDL [CEP70]
protein stability index (treatment: DMSO): 3.48 ± 0.21
protein stability index (treatment: MLN4924 1 uM, 8 h): 3.43 ± 0.37

MRYEEEGMSYLYASWMYQLQHGDQ [TEX19]
protein stability index (treatment: DMSO): 2.3 ± 0.29
protein stability index (treatment: MLN4924 1 uM, 8 h): 2.13 ± 0.17

ACVVQQKDARQWFAELSVDMEKIL [CCNC]
protein stability index (treatment: DMSO): 2.51 ± 0.26
protein stability index (treatment: MLN4924 1 uM, 8 h): 2.42 ± 0.17

FNFKFNLTEDMYAQDSIELLTTSG [CNOT7]
protein stability index (treatment: DMSO): 1.825 ± 0.003

SSKVSGVLKKLAQSRRTALATSPI [YJU2B]
protein stability index (treatment: DMSO): 2.94 ± 0.22
protein stability index (treatment: MLN4924 1 uM, 8 h): 3 ± 0.26

DRQELTYQELLRVCCCELGVNPDQ [ANKRD40]
protein stability index (treatment: DMSO): 3.24 ± 0.24
protein stability index (treatment: MLN4924 1 uM, 8 h): 3.34 ± 0.36

TLYLIVALATVSLLSLVTFTFLSA [PCDHGC5]
protein stability index (treatment: DMSO): 3.2 ± 0.13
protein stability index (treatment: MLN4924 1 uM, 8 h): 3.26 ± 0.29

ADPVLDLPLPPPPPEPLSQVSMWD [APBB1IP]
protein stability index (treatment: DMSO): 3.46 ± 0.68
protein stability index (treatment: MLN4924 1 uM, 8 h): 3.94 ± 0.62

KDKENKFLCVLMSDWFNFHGHMCI [CLK3]
protein stability index (treatment: DMSO): 3.06 ± 0.31
protein stability index (treatment: MLN4924 1 uM, 8 h): 3.08 ± 0.53

AQQWRRARHNYNDLCPPIGRRAAT [GNAS]
protein stability index (treatment: DMSO): 3.58 ± 0.3
protein stability index (treatment: MLN4924 1 uM, 8 h): 3.6 ± 0.16

LKRSANQMGVSAKRRPKAQPTTLV [MED27]
protein stability index (treatment: DMSO): 3.48 ± 0.17
protein stability index (treatment: MLN4924 1 uM, 8 h): 3.72 ± 0.27

GGGFAGGDGLLVGSEKVTMQNLND [KRT16]
protein stability index (treatment: DMSO): 4.72 ± 0.34
protein stability index (treatment: MLN4924 1 uM, 8 h): 4.73 ± 0.1

YHPRDQNKVLVCPMKSAPVMLTLS [RBBP5]
protein stability index (treatment: DMSO): 2.33 ± 0.66
protein stability index (treatment: MLN4924 1 uM, 8 h): 2.34 ± 0.3

SFLEQIMAPLQPSTSRAHKLPSRR [FAM189A2]
protein stability index (treatment: DMSO): 2.8 ± 0.4
protein stability index (treatment: MLN4924 1 uM, 8 h): 3.1 ± 0.3

PAMSPYWRTWMTITQSWQVSVRVQ [C22orf15]
protein stability index (treatment: DMSO): 2.51 ± 0.41
protein stability index (treatment: MLN4924 1 uM, 8 h): 2.74 ± 0.3

QPGAGFGMPPAGTGMPMMPQQPVM [SNAP91]
protein stability index (treatment: DMSO): 3.71 ± 0.26
protein stability index (treatment: MLN4924 1 uM, 8 h): 3.84 ± 0.3

HHHHGRDFLLRAASFDVCESVDEA [RHOBTB2]
protein stability index (treatment: DMSO): 4.04 ± 0.38
protein stability index (treatment: MLN4924 1 uM, 8 h): 4.25 ± 0.27

RGAQGILLVYDITNRWSFDGIDRW [RAB40C]
protein stability index (treatment: DMSO): 2.93 ± 0.91
protein stability index (treatment: MLN4924 1 uM, 8 h): 2.79 ± 0.42

LNHVKSMWYPEIKHFCPRTPVILV [RHOBTB1]
protein stability index (treatment: DMSO): 3.16 ± 0.47
protein stability index (treatment: MLN4924 1 uM, 8 h): 3.1 ± 0.82

AEKKKPKTQIVCKHFLEAIENNKY [ZC3H15]
protein stability index (treatment: DMSO): 3.51 ± 0.41
protein stability index (treatment: MLN4924 1 uM, 8 h): 3.63 ± 0.25
